Results on one molecule are retold here after patent publication US7867500B2, “Cofactor that modulates steroid receptor activities” (The United States of America as represented by the …, priority 2004, dated 2011).

For the series, the target named is T1, androgen receptor (AR) (Homo sapiens, UniProt P10275).
T1 construct: the whole cell actions of TIF2 with full length AR and TRβ; expressed in transfected cells; host or cells: CV-1
T1 sequence (P10275 1-920): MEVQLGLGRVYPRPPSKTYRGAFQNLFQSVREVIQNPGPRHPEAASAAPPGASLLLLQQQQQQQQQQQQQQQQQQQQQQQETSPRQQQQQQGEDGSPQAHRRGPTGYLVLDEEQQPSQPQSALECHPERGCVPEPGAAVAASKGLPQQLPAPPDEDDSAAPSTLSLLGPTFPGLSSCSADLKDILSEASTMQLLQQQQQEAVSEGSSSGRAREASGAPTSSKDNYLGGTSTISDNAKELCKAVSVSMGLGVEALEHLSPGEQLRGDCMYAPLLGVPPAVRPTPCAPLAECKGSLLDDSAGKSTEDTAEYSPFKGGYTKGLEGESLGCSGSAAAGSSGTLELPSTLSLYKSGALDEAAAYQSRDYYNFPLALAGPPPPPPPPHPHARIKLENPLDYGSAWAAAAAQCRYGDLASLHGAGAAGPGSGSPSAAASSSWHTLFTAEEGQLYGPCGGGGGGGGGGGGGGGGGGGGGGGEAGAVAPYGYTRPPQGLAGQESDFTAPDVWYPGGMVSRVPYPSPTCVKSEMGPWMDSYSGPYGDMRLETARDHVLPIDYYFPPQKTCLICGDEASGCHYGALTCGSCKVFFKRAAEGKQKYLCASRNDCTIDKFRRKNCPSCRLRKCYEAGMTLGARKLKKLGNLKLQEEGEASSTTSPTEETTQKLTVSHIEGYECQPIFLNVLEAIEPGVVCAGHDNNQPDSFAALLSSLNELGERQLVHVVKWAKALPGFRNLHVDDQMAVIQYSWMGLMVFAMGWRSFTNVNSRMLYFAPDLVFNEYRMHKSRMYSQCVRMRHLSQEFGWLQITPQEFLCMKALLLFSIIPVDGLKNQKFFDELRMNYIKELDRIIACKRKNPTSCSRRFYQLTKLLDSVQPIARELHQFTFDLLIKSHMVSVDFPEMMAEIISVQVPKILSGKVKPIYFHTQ
Kind of series: AR-mediated induction of GREtkLUC reporter in CV-1 cells. The note with it: R1881. It is filed as cell-based. The procedure:
FIG. 6D1-2 illustrate the effects of STAMP and TIF2 on androgen receptor (AR, FIG. 6D1) and thyroid receptor β (TRβ, FIG. 6D2) expression. […] Luciferase activities, normalized to the internal Renilla control values, and the fold changes in EC50 and fold induction were determined and plotted as in FIG. 4B.

B1: STAMP: SRC-1 and TIF2 Associated Modulatory Protein, 1277 amino acid human polypeptide, expressed from transfected plasmid (protein)
chain: MARDLEETASSSEDEEVISQEDHPCIMWTGGCRRIPVLVFHADAILTKDNNIRVIGERYHLSYKIVRTDSRLVRSILTAHGFHEVHPSSTDYNLMWTGSHLKPFLLRTLSEAQKVNHFPRSYELTRKDRLYKNIIRMQHTHGFKVFHILPQTFLLPAEYAEFCNSYSKDRGPWIVKPVASSRGRGVYLINNPNQISLEENILVSRYINNPLLIDDFKFDVRLYVLVTSYDPLVIYLYEEGLARFATVRYDQGAKNIRNQFMHLTNYSVNKKSGDYVSCDDPEVEDYGNKWSMSAMLRYLKQEGRDTTALMAHVEDLIIKTIISAELAIATACKTFVPHRSSCFELYGFDVLIDSTLKPWLLEVNLSPSLACDAPLDLKIKASMISDMFTVVGFVCQDPAQRASTRPIYPTFESSRRNPFQKPQRCRPLSASDAEMKNLVGSAREKGPGKLGGSVLGLSMEEIKVLRRVKEENDRRGGFIRIFPTSETWEIYGSYLEHKTSMNYMLATRLFQDRMTADGAPELKIESLNSKAKLHAALYERKLLSLEVRKRRRRSSRLRAMRPKYPVITQPAEMNVKTETESEEEEEVALDNEDEEQEASQEESAGFLRENQAKYTPSLTALVENTPKENSMKVREWNNKGGHCCKLETQELEPKFNLMQILQDNGNLSKMQARIAFSAYLQHVQIRLMKDSGGQTFSASWAAKEDEQMELVVRFLKRASNNLQHSLRMVLPSRRLALLERRRILAHQLGDFIIVYNKETEQMAEKKSKKKVEEEEEDGVNMENFQEFIRQASEAELEEVLTFYTQKNKSASVFLGTHSKISKNNNNYSDSGAKGDHPETIMEEVKIKPPKQQQTTEIHSDKLSRFTTSAEKEAKLVYSNSSSGPTATLQKIPNTHLSSVTTSDLSPGPCHHSSLSQIPSAIPSMPHQPTILLNTVSASASPCLHPGAQNIPSPTGLPRCRSGSHTIGPFSSFQSAAHIYSQKLSRPSSAKAGSCYLNKHHSGIAKTQKEGEDASLYSKRYNQSMVTAELQRLAEKQAARQYSPSSHINLLTQQVTNLNLATGIINRSSASAPPTLRPIISPSGPTWSTQSDPQAPENHSSSPGSRSLQTGGFAWEGEVENNVYSQATGVVPQHKYHPTAGSYQLQFALQQLEQQKLQSRQLLDQSRARHQAIFGSQTLPNSNLWTMNNGAGCRISSATASGQKPTTLPQKVVPPPSSCASLVPKPPPNHEQVLRRATSQKASKGSSAEGQLNGLQSSLNPAASVPITSSTDPAHTKI
Turning to B1, the “left-shift of the dose-response curve of ARs” value (STAMP added by itself) is on record as “not when added by itself” and the “left-shift of the dose-response curve of ARs” value (in the presence of TIF2) was “augments the left-shift”. For the same molecule, the “fold induction by AR” value is, setting by setting: (STAMP with TIF2) “no additional effect”; (STAMP without TIF2) “increases the fold induction”.
